System: T1, hADAR2-R2D E488Q E488Q (Homo sapiens), P78563-2
T1 sequence: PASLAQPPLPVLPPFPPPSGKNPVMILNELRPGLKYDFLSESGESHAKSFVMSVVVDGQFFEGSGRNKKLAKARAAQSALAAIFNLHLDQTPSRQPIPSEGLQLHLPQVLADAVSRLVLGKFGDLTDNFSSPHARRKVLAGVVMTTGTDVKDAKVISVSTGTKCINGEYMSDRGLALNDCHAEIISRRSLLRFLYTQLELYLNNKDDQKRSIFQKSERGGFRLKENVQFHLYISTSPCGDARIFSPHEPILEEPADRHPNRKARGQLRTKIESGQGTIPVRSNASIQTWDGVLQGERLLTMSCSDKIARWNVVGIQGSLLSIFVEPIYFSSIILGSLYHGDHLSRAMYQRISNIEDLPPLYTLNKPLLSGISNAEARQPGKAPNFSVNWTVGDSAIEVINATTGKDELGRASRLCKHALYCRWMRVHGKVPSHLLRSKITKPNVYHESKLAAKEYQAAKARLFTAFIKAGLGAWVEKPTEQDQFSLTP
Test: EMSA
Details: N at position 13 of strand 1 = 8-azanebularine; EMSA: labeled strand hybridized to complement 1:3 in 1X TE pH 7.5; protein 0.25-256 nM (GG) or 0-260 nM (UA); binding buffer, salt and temperature not given in …

| Sequence | Kd [nM] |
| --- | --- |
| GCUCGCGAUGCGNGAGGGCUCUGAUAGCUACG / CGUAGCUAUCAGAGCCCCCCGGCAUCGCGAGC [GLI1 (GG) 32mer, azaN] | 6 |
| GCUCGCGAUGCUNGAGGGCUCUGAUAGCUACG / CGUAGCUAUCAGAGCCCCCCAGCAUCGCGAGC [GLI1 (UA) 32mer, azaN] | 0.9 |

From publication PMC9638939
